Source: patent US20140314784A1 (MEDLMMUNE, published 2014)

Tests used:
[1] = biological target: T1, mouse CXCR4 (mouse, UniProt P70658 1-359); test: FMAT, hybridoma supernatant on HEK293T cells transiently overexpressing full-length mouse CXCR4
T1 construct: Full-length murine CXCR4 on transiently transfected HEK293T cells; also native on mouse lymphocytes and the EL4 line; also called murine CXCR4
Procedure: (§1) Supernatants collected from harvested cells were tested to assess the ability of the secreted antibodies to bind to HEK293T cells transiently overexpressing either full-length human, murine or cynomolgus monkey CXCR4. […] Cells diluted in PBS containing 2% FBS were seeded at a density of 3000 expressing and 15000 mock transfected cells per well in 384 well plates (Corning Costar, catalog #3712). Immediately after plating, 15 or 20 μl/well of hybridoma supernatants and 10 μl/well of secondary antibody (Goat anti-human IgG Fc Cy5, final concentration 750 ng/ml) were added and plates incubated for 3 hours at room temperature prior to reading the fluorescence on the FMAT 8200 instrument (Applied Biosystems). The product of number of positive events and fluorescence intensity was used as a measure of binding strength.

[2] = biological target: T2, cynomolgus monkey CXCR4 (cynomolgus monkey, UniProt Q28474 1-352); test: FMAT, hybridoma supernatant on HEK293T cells transiently overexpressing full-length cynomolgus CXCR4
T2 construct: whole, on cells; On transiently transfected HEK293T cells or endogenous on the cynomolgus T-cell line HSC-F; also called Cynomolgus CXCR4
Procedure: as §1

[3] = biological target: T3, human CXCR4 (human, UniProt P61073 1-352); test: cell-based or functional assay
[4] = biological target: T1, mouse CXCR4; test: FMAT, hybridoma supernatant on HEK293T cells transiently overexpressing mouse CXCR4
Procedure: as §1

[5] = biological target: T3, human CXCR4; test: cell-based or functional assay; remark: listed apart in the source
[6] = biological target: T3, human CXCR4; test: FACS, hybridoma supernatant pre-incubated with human CXCR4 transfected HEK293T cells, competitor Alexa-647 SDF-1
[7] = biological target: T3, human CXCR4; test: FMAT, hybridoma supernatant on HEK293T cells transiently overexpressing full-length human CXCR4
Procedure: as §1

T1 sequence (P70658 whole entry): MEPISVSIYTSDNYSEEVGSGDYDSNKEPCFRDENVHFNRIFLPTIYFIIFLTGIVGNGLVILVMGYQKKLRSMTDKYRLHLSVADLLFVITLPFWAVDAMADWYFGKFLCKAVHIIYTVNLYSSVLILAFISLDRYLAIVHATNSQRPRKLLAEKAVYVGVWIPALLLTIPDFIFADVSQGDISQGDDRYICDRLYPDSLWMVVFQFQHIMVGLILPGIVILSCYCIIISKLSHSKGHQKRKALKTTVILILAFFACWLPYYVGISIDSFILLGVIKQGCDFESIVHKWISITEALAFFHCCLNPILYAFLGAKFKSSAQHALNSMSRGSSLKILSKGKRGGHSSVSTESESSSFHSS
T2 sequence (Q28474 whole entry): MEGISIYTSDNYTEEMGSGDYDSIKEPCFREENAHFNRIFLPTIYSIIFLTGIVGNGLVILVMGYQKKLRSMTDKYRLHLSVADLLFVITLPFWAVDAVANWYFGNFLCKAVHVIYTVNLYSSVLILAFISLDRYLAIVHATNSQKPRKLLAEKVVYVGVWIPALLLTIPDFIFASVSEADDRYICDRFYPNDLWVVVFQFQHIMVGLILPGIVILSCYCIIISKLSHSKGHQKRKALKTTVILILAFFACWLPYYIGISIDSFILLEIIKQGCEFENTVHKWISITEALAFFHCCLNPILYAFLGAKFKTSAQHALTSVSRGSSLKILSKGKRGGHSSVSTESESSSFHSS
T3 sequence (P61073 whole entry): as the sequence (Q28474 whole entry) above, with I24M, H35N, R38K, K146R, S176N counted along it

Count [1]: 72
FL1 [1]: 4780
FL1 x count [1]: 344000
Count [2]: 106
FL1 [2]: 7320
FL1 x count [2]: 776000
% Inhibition 1 hr (Jurkat chemotaxis) [3]: 74%
% Inhibition 24 hr (Jurkat chemotaxis) [3]: 44%
binding result [4]: no binding
Jurkat chemotaxis inhibition IC50 pM [5]: 28200 pM
Jurkat chemotaxis inhibition IC50 [5]: 4.22 µg/mL
% Inhibition of SDF-1 binding [6]: -1%
Count [7]: 233
FL1 [7]: 8800
FL1 x count [7]: 2.05e+06
B1: 5C9 (antibody, V domains shown)
VH: QVQLVESGGGVVQPGRSLRLSCAASGFTFSSYGLHWVRQSPGKGLEWVAVISYDGSKKYYADSVKGRFSISRDNSKNTLYLQMNSLRAEDTAVYYCARDRPSRYSSCMDVWGQGTTVTVSS
VL: QSALTQPASVSGSPGQSITISCTGTSSDVGSNNFVSWYQQHPGKAPKLMIYEVSKRPSGVSNRFSGSKSGNTASLTISGLQAEDEADYYCCSYAGSNTLVFGGGTKLTVL
notes: Fully human monoclonal antibody from XenoMouse hybridoma (lambda light chain)
